Target: human FAM19A5-Fc protein (Lot# 170815) (human, UniProt Q7Z5A7 44-132)
Test: cell-based or functional assay

Sequence of human FAM19A5-Fc protein (Lot# 170815) (Q7Z5A7 other isoform, or with tags, fused parts or gaps): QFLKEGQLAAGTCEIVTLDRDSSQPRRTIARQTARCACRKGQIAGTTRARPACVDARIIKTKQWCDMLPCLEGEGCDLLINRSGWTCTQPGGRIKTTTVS

IC50 for inhibition of the FAM19A5-Fc-enhanced TNF-α production by LPS-stimulated BV2 cells (mouse TNF-α ELISA): 11.5 µg/mL
B1: anti-FAM19A5 antibody (clone "1-30"; Lot# A5m180831) (antibody, V domains shown)
VH: AVTLDESGGGLQTPGGALRLSCKASGFDFESFNMFWVRQAPGKGLEYVSQISSSEEDENYAPAVKGRATISRDNGQSTLYLQMNSLRAEDTGTYYCAKSSYDCPYGHCSSGVDSAGEIDAWGHGTEVIVSS
VL: ALTQPSSVSANPGETVKITCSGGGSEEEQYYYGWYQQKPGSAPVTLIYQDEERPSDIPSRFSGSTSGSTATLTITGVQAGDEADYYCGSWDSEDEDHFGAGTTLTVL

From patent publication US20220064277A1 (NEURACLE SCIENCE, published 2022)
